{
  "source": "paper PMC4078746",
  "about": "(Current biology : CB, 2010)",
  "proteins": {"B1": {"name": "Robo2^R1I1+2 Ig1-5 fragment (Ig1+2 of Robo, Ig3-5 of Robo2) (domain or fragment)", "chain": "not shown"}},
  "target": "the molecule itself",
  "assay": "SEC",
  "data": [
    {"protein": "B1", "values": [
      {"measurement": "stoichiometry N", "result": 2}
    ]}
  ]
}
